One series relates to HT1080.hPSMA tumor. Put plainly: MMAE release at different time points in HT1080.hPSMA tumor model (Conjugate 7 vs Conjugate 1). It counts as in vivo, mice. Here is the method: HT1080.hPSMA tumor cells were grown to 90% confluence and detached with Trypsin-EDTA 0.05%. Cells were resuspended in Hank's Balanced Salt Solution (HBSS) at a 5×10^7 cells/mL density. 100 μL of HT1080.hPSMA cells (5×10^6 cells) were injected subcutaneously in the right flank of female athymic Balb/c AnNRj-Foxn1 mice (6 to 8 weeks of age). Tumors were grown until ˜250 mm^3 volume (average).
0.1 mL of a 50 μM solution (2% DMSO, PBS, 250 nmol/kg) of Conjugate 7 was injected intravenously into the tail vein of the mice. The animals were sacrificed after 6 h, 24 h, 48 h, or 72 h (n=3/group), and blood and the following organs were extracted: HT1080.hPSMA tumor, heart, lungs, liver, kidney, spleen, stomach. The blood fraction was centrifuged, and the plasma (supernatant) was extracted. The organs were stored at −80° C. before being used for further analysis.
Frozen plasma (50 μL) and mouse tissues (˜50 mg) were thawed, and 500 μL of PBS was added. Samples were kept on ice, and 50 μL solution of internal standard (d8-MMAE, 50 nM) was added. Samples were then homogenized at 4° C. with a tissue lyser for 2 minutes at 30 Hz for 4 cycles. After homogenization, samples were centrifuged (21'000 g, 10 min). Subsequently, 100 μL of supernatants were collected and added to 900 μL of acetonitrile (ACN) to induce protein precipitation. After centrifugation (21'000 g, 10 min), 800 μL of supernatants were collected and dried at room temperature with a vacuum centrifuge. Pellets were then resuspended in 20 μL of an aqueous solution containing 3% ACN and 0.1% of HCOOH, and 5 μL were injected into the UHPLC-MS system. […] Peak areas of analytes and internal standards were integrated, and corresponding ratios were calculated. The ratios were then transformed into pmol/g of wet tissue using single-concentration external calibration points and corrected by the total weight of the sample analysed. The percentage of injected dose per gram (% ID/g) was finally calculated by normalizing the value based on the total dose injected into the mouse. […]

For a further series, the system named is LNCaP tumor (PSMA+). Put plainly: MMAE release from conjugates in LNCaP tumor model (biodistribution by LC-MS). It counts as in vivo, mice. Here is the method: LNCaP tumor cells were grown to 80% confluence and detached with Trypsin-EDTA 0.05%. Cells were resuspended in PBS at a density of 30×10^6 cells/mL. The cell suspension was further diluted 1:1 with Matrigel. 200 μL of LNCaP cells (3×10^6 cells) were injected subcutaneously in the left flank of female athymic Balb/c AnNRj-Foxn1 mice (6 to 8 weeks of age). Tumors were grown until volumes of 200-300 mm^3 were observed.
0.1 ml of 50 μM solutions (2% DMSO, PBS) of the four Conjugates (1-4) were injected intravenously into 4 of the mice (1 mouse per SMDC). The animals were sacrificed after 24 h and the following organs were extracted: blood, LNCaP tumor (PSMA+), heart, lungs, liver, kidney, spleen, stomach. The blood fraction was centrifuged, and the plasma (supernatant) was extracted. The organs were preserved at −80° C. before being used for further analysis.
Frozen plasma or mouse tissues (˜50 mg) were thawed and treated with 600 μL of an aqueous solution containing 95% acetonitrile (ACN), and 0.1% HCOOH were added to induce protein precipitation. 50 μL of a solution of d8-MMAE, 50 nM) was added as internal standard. Samples were then homogenized with a tissue lyser for 15 minutes at 30 Hz. After homogenization, samples were centrifuged (21'000 g for 10 minutes). The supernatant was collected and dried at room temperature with a rotary evaporator. Pellets were then resuspended in 1 mL of an aqueous solution containing 3% ACN and 0.1% of TFA and subsequently purified on Oasis HLB SPE columns. Eluates were dried under vacuum at room temperature. […] Peak areas of analytes and internal standards were integrated, and corresponding ratios were calculated. The ratios were then transformed into pmol/g of wet tissue using single-concentration external calibration points and corrected by the total weight of the sample analysed. The percentage of injected dose per gram (% ID/g) was finally calculated by normalizing the value based on the total dose injected into the mouse. […]

These results are taken from patent US12576154B2, “Conjugates of PSMA-binding moieties with cytotoxic agents” (PHILOCHEM AG, priority 2022, dated 2026).

Take `CC[C@H](C)[C@@H]([C@@H](CC(=O)N1CCC[C@H]1[C@H](OC)[C@@H](C)C(=O)N[C@H](C)[C@@H](O)c1ccccc1)OC)N(C)C(=O)[C@@H](NC(=O)[C@H](C(C)C)N(C)C(=O)OCc1ccc(NC(=O)[C@@H]2CCCN2C(=O)CNC(=O)CCCCCN2C(=O)CC(SC[C@H](N)C(=O)NCCCCCC(=O)NC[C@H]3CC[C@H](C(=O)N[C@@H](Cc4ccc5ccccc5c4)C(=O)NCCCC[C@H](NC(=O)N[C@@H](CCC(=O)O)C(=O)O)C(=O)O)CC3)C2=O)cc1)C(C)C` (some centres unmarked) [Conjugate 1]: the “MMAE release at 6 h” value with HT1080.hPSMA tumor (6 h after i.v. 250 nmol/kg, n=3) came to 200 pmol/g. In addition, the “MMAE release at highest accumulation point (average)” value in the series on HT1080.hPSMA tumor (24 h after i.v. 250 nmol/kg, n=3) was “approx. 300 pmol/g”. In the series on HT1080.hPSMA tumor (i.v. 250 nmol/kg, time points 6, 24, 48, 72 h), the “Time of highest accumulation point of released MMAE” value worked out at 24 h. Further, in the series on LNCaP tumor (PSMA+) (24 h after intravenous injection, LNCaP tumor model, n=3), the “MMAE release, experiment repeated with three mice each” value is “confirmed”. The “MMAE release (quantitative biodistribution)” value in the series with LNCaP tumor (PSMA+) (24 hours after intravenous injection, 0.1 ml of 50 μM, 1 mouse per SMDC, LNCaP tumor and organs) is “Significant release of MMAE”.
